Molecular target: recombinant human renin (human) (UniProt P00797)
Chain of UniProt P00797 (P00797 67-406): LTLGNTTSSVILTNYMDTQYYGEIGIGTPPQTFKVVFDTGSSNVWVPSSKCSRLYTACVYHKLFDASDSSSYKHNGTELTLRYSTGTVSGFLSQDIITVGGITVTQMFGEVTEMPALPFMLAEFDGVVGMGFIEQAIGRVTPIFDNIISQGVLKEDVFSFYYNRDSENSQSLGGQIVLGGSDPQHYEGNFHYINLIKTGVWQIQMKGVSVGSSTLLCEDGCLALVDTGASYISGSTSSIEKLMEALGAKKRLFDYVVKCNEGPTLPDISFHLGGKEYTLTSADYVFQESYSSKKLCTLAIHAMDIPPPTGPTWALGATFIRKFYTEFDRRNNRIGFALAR

“recombinant ovine angiotensinogen expressed in CHO cells (natural protein)” gave a Km (steady-state kinetics of human renin, 25 pM, with 0-0.4 μM oANG at 37 °C, pH 7.2; angiotensin I generated, measured by ELISA; Hanes-Woolf plot) of 0.072 μM.

— publication PMC4823841
